Measurements: patent US20230055408A1 (JIANGSU HENGRUI MEDICINE, published 2023)
Like-named read-outs stand apart in the source and are kept apart here.

T1: human CEA protein on the cell surface (human, UniProt P06731 35-685)
T1 construct: whole, on cells; also called CEACAM-5; CD66e
T1 sequence (looked up): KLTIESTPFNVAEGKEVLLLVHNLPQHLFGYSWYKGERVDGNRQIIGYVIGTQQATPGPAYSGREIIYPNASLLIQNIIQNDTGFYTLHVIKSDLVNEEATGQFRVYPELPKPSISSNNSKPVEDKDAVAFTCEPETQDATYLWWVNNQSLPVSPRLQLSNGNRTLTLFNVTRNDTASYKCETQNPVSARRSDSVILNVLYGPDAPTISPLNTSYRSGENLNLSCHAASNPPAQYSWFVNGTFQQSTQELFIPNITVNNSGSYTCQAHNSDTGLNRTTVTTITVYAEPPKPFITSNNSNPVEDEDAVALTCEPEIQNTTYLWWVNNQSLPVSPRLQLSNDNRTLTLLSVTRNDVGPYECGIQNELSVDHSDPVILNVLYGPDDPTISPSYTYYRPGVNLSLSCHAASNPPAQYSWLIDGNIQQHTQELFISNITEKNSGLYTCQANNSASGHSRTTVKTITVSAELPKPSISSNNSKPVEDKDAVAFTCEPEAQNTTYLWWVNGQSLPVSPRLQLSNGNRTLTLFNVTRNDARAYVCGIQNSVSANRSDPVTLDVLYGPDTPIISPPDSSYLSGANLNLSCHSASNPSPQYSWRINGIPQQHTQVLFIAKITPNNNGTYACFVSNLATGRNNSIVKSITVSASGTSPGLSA

T2: monkey CEA expressed on CHO cell surface (cynomolgus monkey)
T2 construct: also called cynoCEA-CHO; monkey CEA proteins on the cell surface
T2 chain: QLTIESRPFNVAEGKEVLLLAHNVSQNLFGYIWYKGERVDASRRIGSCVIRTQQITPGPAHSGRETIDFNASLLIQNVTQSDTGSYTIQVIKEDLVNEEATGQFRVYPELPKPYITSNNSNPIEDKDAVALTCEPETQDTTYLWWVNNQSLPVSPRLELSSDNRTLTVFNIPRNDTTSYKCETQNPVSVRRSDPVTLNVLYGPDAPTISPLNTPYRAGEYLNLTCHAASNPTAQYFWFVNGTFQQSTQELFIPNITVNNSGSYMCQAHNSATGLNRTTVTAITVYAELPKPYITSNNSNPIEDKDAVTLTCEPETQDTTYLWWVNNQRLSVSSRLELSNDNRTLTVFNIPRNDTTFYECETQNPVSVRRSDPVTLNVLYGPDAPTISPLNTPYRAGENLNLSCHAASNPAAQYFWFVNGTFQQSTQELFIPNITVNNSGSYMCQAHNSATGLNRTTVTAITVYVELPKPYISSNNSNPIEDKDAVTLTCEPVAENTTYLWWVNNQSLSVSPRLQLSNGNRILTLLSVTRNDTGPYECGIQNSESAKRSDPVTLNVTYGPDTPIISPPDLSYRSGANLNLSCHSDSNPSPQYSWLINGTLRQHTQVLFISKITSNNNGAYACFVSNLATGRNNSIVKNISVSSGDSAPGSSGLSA

T3: human CEACAM1 expressed on CHO cell surface (human, UniProt P13688 35-526)
T3 construct: also called CEACAM1-CHO
T3 sequence: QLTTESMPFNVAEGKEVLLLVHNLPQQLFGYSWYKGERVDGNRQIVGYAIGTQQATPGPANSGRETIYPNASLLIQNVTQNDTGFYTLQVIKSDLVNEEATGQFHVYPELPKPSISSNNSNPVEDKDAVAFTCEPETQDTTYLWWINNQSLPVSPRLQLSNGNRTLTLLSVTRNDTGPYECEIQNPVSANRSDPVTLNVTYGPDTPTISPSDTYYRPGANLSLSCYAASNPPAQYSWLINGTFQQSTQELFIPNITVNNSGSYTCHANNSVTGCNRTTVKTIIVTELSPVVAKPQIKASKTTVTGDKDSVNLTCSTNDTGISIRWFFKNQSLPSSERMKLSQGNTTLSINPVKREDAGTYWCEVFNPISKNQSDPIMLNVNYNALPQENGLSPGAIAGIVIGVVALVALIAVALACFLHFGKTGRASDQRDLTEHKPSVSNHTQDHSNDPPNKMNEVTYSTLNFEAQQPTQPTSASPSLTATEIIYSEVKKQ

T4: human soluble CEA (human, UniProt P06731 35-685, limits assumed)
T4 construct: also called sCEA
T4 sequence (looked up): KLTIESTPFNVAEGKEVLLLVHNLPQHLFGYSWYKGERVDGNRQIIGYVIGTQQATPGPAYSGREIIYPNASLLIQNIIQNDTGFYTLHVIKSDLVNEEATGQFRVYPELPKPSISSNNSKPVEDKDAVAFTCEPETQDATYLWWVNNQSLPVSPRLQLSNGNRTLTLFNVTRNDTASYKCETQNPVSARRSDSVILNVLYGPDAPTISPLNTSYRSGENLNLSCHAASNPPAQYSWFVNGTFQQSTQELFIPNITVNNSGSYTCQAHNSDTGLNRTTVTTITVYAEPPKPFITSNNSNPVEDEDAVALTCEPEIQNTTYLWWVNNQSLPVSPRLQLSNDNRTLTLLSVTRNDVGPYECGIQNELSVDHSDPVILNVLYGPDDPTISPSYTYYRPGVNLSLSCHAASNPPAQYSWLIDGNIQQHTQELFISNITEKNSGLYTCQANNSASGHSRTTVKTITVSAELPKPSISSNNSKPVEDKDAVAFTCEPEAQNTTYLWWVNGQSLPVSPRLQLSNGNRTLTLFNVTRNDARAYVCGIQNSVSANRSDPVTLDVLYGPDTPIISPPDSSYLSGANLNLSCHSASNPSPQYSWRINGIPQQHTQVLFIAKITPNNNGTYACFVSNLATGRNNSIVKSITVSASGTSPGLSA

B1: mAb47 (antibody, V domains shown)
VH: QIQLVQSGPELKKPGETVKISCKASGYTFTTYGMSWVKQAPGKGLKWMGWINTYSGVPTYADDFKGRFAFSLETSASTAYLQINNLKNEDTATYFCARRGNYGRWDFDVWGTGTTVTVSS
VL: EIVLTQSPALMAASPGEKVTITCSVSSTISSSNLHWYQQKSETSPKPWIYGTSNLASGVPVRFSGSGSGTSYSLTISSMEAEDAATYYCQQWSIYPLTFGAGTKLELK
notes: Murine hybridoma antibody
B2: mAb67 (antibody, V domains shown)
VH: EVQLQQSGPELVKPGASVKIYCKASGYTFTDYHMNWVKQSHGKSLEWIGDINPDIGGTSYNQNFKGKATLTVDKSSSTAYMELRSLTSEDSAVYYCSRWDFDSFANWGQGTLVTVSA
VL: DIVMTQSPASLAMSLGKRATISCRASESVSIIGTNLIHWYQQKPGQPPKLLIYHASNLETGVPARFSGSGSGADFTLTIDPVEGDDVALYYCLQSRKIPYTFGGGTKMEIK
notes: Murine hybridoma antibody
B3: Hu47-14 (antibody, human IgG1, kappa, V domains shown)
VH: EVQLVQSGSELKKPGASVKVSCKASGYTFTTYGMSWVKQAPGQGLKWMGWINTYSGVPTYASDFKGRFVFSLDTSVSTAYLQISSLKAEDTAVYYCARRGNYGRWDFDVWGQGTTVTVSS
VL: EIVLTQSPDFQSVTPKEKVTITCSVSSTISSSNLHWYQQKPDQSPKPLIYGTSNLASGVPSRFSGSGSGTDYTLTINSLEAEDAATYYCQQWSIYPLTFGQGTKLEIKR
notes: Humanized IgG1/kappa; h47VH4 + h47VL2
B4: Labetuzumab (antibody, human IgG1, kappa, V domains shown)
VH: EVQLVESGGGVVQPGRSLRLSCSASGFDFTTYWMSWVRQAPGKGLEWIGEIHPDSSTINYAPSLKDRFTISRDNAKNTLFLQMDSLRPEDTGVYFCASLYFGFPWFAYWGQGTPVTVSS
VL: DIQLTQSPSSLSASVGDRVTITCKASQDVGTSVAWYQQKPGKAPKLLIYWTSTRHTGVPSRFSGSGSGTDFTFTISSLQPEDIATYYCQQYSLYRSFGQGTKVEIKR
notes: Positive control antibody; also called Lmab; antibody in Lmab-CL2A-SN38
B5: antibody in SAR-408701 (antibody, human IgG1, kappa, V domains shown)
VH: EVQLQESGPGLVKPGGSLSLSCAASGFVFSSYDMSWVRQTPERGLEWVAYISSGGGITYAPSTVKGRFTVSRDNAKNTLYLQMNSLTSEDTAVYYCAAHYFGSSGPFAYWGQGTLVTVSS
VL: DIQMTQSPASLSASVGDRVTITCRASENIFSYLAWYQQKPGKSPKLLVYNTRTLAEGVPSRFSGSGSGTDFSLTISSLQPEDFATYYCQHHYGTPFTFGSGTKLEIKR
notes: Positive control antibody; also called Sanofi

How the values were obtained:
[1] = molecular target: T1, human CEA protein on the cell surface; test: FACS, MKN45 cells
[2] = molecular target: T2, monkey CEA expressed on CHO cell surface; test: FACS, cynoCEA-CHO cells
[3] = molecular target: T3, human CEACAM1 expressed on CHO cell …; test: FACS, CEACAM1-CHO cells
[4] = molecular target: T3, human CEACAM1 expressed on CHO cell …; test: FACS, CEACAM1-CHO cells; remark: listed apart in the source
[5] = molecular target: T4, human soluble CEA; test: SPR (Biacore T200), antibody captured, soluble CEA as analyte, 1:1 Langmuir
Method: The affinity of a test humanized antibody for human and monkey soluble CEA was determined using a Biacore (GE, T200) instrument. According to the method in the instructions of a human antibody capture kit (GE, Cat #BR-1008-39), the human antibody capture antibody was covalently conjugated to a biosensor chip CM5 (GE, Cat #BR-1005-30) of the Biacore instrument to affinity-capture a certain amount of the test antibody, then a series of concentration gradients of soluble CEA antigens were allow to flow through the surface of the chip, and reaction signals were detected in real time using Biacore, so that an association and dissociation curve was obtained. After each cycle of dissociation was completed, the biochip was washed and regenerated with a regeneration solution prepared in the human antibody capture kit. The data obtained from the experiment were fitted with the (1:1) Langmuir model using BIAevaluation version 4.1 software to obtain affinity values.

[6] = molecular target: T1, human CEA protein on the cell surface; test: FACS, MKN45 cells; remark: listed apart in the source
[7] = molecular target: T2, monkey CEA expressed on CHO cell surface; test: FACS, cynoCEA-CHO cells

Row | Binder | EC50 [1] [nM] | EC50 [2] [nM] | binding result [3] | binding result [4] | Kd [5] [nM] | EC50 [6] [nM] | EC50 [7] [nM] | binding result [7]
1 | B1 | 2.1 | 1.66 | no binding | – | – | – | – | –
2 | B2 | 1.9 | 6 | no binding | – | – | – | – | –
3 | B3 | – | – | – | no binding | 1430 | 4.19 | 2.7 | –
4 | B4 | – | – | – | no binding | 5.93 | 2.45 | – | no binding
5 | B5 | – | – | – | no binding | – | – | 17.3 | –
